Measured values: PMC8967717 (Nature, 2022)

B1: XGv296 (antibody, V domains shown)
VH: QVQLVQSGAEVKKPGASVKISCKASGYTFTDHYVHWVRQAPGQGLEWMAIVNPSDGSTSYAQKFQGRVTMTSDTSTTTIYMELSSLRSGDTAVYYCARAEGSSWLGWFDPWGQGTQVTVSS
VL: QSVLTQPPSASGTPGQRVTISCSGSSSNIGGHYVYWYQQFPGTAPKLLIYRSNQRPSGVPDRFSGSKSGTSASLAISGLRSEDEADYFCAAWDDGLRGSGWVFGGGTTLTV
B2: XGv420 (antibody, V domains shown)
VH: QVQLQESGPGLVKPSGTLSLTCAVSGGSINSNNWWSWVRQPPGKGLEWIGEIYHNGNTNYNPSLKSRVTISVDTSKNQFSLRLSSVTAADTAVYYCARGDSLDWFDPWGQGTLVTVSS
VL: QSALTQPASVSGSPGQSITISCTGTSSDVGSYNYVSWYQQLPGKAPKLMIYDVSNRPSGVSNRFSGSKSGNTASLTISGLQAEDEADYYCSSYTSSSTLVFGTGTKVTVL
B3: XGv402 (antibody, V domains shown)
VH: QVQLVESGGGVVQPGRSLRLSCAASGFTFNNYAMHWVRQAPGKGLEWVAVISYDGSNEFYLDSVKGRFAISRDNSKNTLYLQTNSLRGEDTAVYYCARESRRGADYWGQGTLVTVSS
VL: DIQMTQSPSSLSASVGDRVTITCRASQIISNYLNWYQQKPGKAPKLLIYAASSLQSGVPSRFSGSGSGTDFTLTISSLQPEDSATYYCQQSFSPLWTFGPGTKVEIK
B4: XGv347 (antibody, V domains shown)
VH: QMQLVQSGPEVKKPGTSVKVSCKASGFTFTDVSSLQWVRQARGQRLEWIGWTVVGTGNTNYAPRFQERVTITTDKSTSTAYMELSSLRSEDTAVYYCAAPFCSETSCSDGFDLWGQGTKVTVSS
VL: EIVLTQSPGTLSLSPGDRATLSCRASQSVRISYLAWYQQKPGQAPRLLISGSSSRATGIPDRFSASGSGTDFALTISRLEPEDFAVYYCQQYDNSPWTFGQGTKVEVK
B5: XGv265 (antibody, V domains shown)
VH: QITLKESGPTLVKPTQTLTLTCNFSGFSLNTYGVGVGWIRQPPGKALEWLALIYWDGDERYGPFFKNKVTIAKDTSKNQVVLTMTNMDPVDTATYYCARHLIPTIFDYWGQGTLVTVSS
VL: QSALTQPASVSGSPGQSITISCTGTSSDVGGSNYVSWYQHHPDRAPKLLIYEVTNRPSGVSNRFSGSKSANTASLTISGLQAEDEADYYCSSYTTTSTHILFGGGTKLTV
B6: XGv302 (antibody, V domains shown)
VH: EVQLVESGGGLIQPGGSLRLSCAASGITVSSNYMNWVRQAPGKGLEWVSVIYAGGTTFYADSVKGRFTISRDSSKNTLSLQMNSLRVEDTAVYYCVRNLVVYGMDVWGQGTTVTVSS
VL: DIQLTQSPSSLSASVGDRVTITCRASQGISSDLAWYQQKPGKAPKLLIYGASTLQSGVPSRFSGSGSGAHFTLTINSLQPEDFAIYYCQQLNSEFLTFGGGTKVEIK
B7: XGv304 (antibody, V domains shown)
VH: EVQLVESGGGLIQPGGSLRLSCEASEITVSSNYMRWVRQAPGKGLEWVSLIYAGGSTFYADSVKGRFTISRDNSKNTLYLQMNSLRVEDTAVYYCARDLMVYGMDVWGQGTTVTVSS
VL: DIQLTQSPSSLSASVGDRVTITCRASQGISSYLAWYQQKPGKAPNLLIYGASTLQSGVPSRFSGSGSGTDFTLTISSLQPEDFATYYCQHLNSDPLTFGGGTKVEIK
B8: XGv303 (antibody, V domains shown)
VH: EVQLVESGGGLIRPGGSLRLSCAASGITVSSNYMTWVRQAPGKGLEWVSVIYSGGTTFYADSVKGRFTISRDNSKNTLYLQMNSLRAEDTAVYYCARNLVVYGMDVWGQGTTVTVSS
VL: DIQLTQSPSSLSASVGDRVTITCRASQGISSDLAWYQQKPGKAPKLLIYGASTLQGGVPSRFSGSGSGTDFTLTISRLQPEDCAIYYCQQLNSEFLTFGGGTKVEIK
B9: XGv282 (antibody, V domains shown)
VH: QVQLVQSGAEVKKPGSSVKVSCKASGDTFSSYTFSWVRQAPGQGLEWMGRSIPIVGKAIYAQEFQGRVTISADRSTTTVYMELSSLRSDDTAVYYCARDQSGFDFFYYDHWGQGTLVAVSS
VL: QSVLTQPPSASGTPGQRVTISCSGSGSNIGSNTINWYQQLPGTAPKVLIYRNNERPSGVPDRFSGSKSGTSASLTISGLQSEDEAYYHCAAWDDSLNGPVFGGGTKLTVL
B10: XGv387 (antibody, V domains shown)
VH: EVQLVESGGGLIQPGGSLRLSCAASGVIVSSNYMSWVRQAPGKGLEWVSVMYSGGSTFYADSVKGRFTISRDNSKNTLYLQMNRLRAEDTAVYFCARGDGGSYLGGAFDIWGQGTMVTVSS
VL: DIQMTQSPSSLSASVGDRVTLTCRASQSISTYLNWYQQKPGKAPKLLIYAASSLQSGVPSRFSGSGSGTDFTLTINSLQPEDFATYYCQQSYSLPALTFGGGTKVEIK
B11: XGv295 (antibody, V domains shown)
VH: QVQLVQSGAEVKKPGASVKVSCKASGYIFTNYYIHWVRQAPGQGLEWMAIFNPSAATASYAQKFQGRVTMTRDTSTTTVYMELRSLRFDDTAVYYCARAEGTSWLGWFDPWGQGTLVTVSS
VL: QSVLTQPPSASGTPGQRVTVSCSGSSSNIGSHDVYWYQQLPGTAPKLLIYKNDQRPSGVPDRFSGSTSGTSASLAISGLRSEDEADYYCAAWDDGLSGSGWVFGGGTKLTVL
B12: XGv289 (antibody, V domains shown)
VH: QVQLVQSGAEVKKPGASLKVSCRASGYTFTSHFIHWVRQAPGQGLEWMGIINPSGGASYAQNFRDRVTMTTDPSTSTVYMELGSLRSEDTAVYYCARAEGSSWLGWFDPWGQGTLVTVSS
VL: QSVLTQPPSASGTPGQRVTIPCSGSSSNIGNNYVYWYQQLPGTAPKLLVYGNNQRPSGVPDRFSVSKSGTSASLAISGLRSEDEADYYCAAWDDGLSGSGWVFGGGTKLTVL
B13: XGv297 (antibody, V domains shown)
VH: QVQLVQSGAEVKKPGASVKVSCRTSGYTFTAYYIHWVRQVPGQGLEWMGIINPSGGGASYAQTFQGRVSLTRDTSTRTVYMDLSSLISEDTAVYYCARAEGTHWLGWFDPWGQGTLVTVSS
VL: QSVLTQPPSASGTPGQRVTISCSGSSSNIASNSVYWYQQLPGTAPKLLIYRNNQRPSGVPDRFSGSTSGTSASLAISGLRSEDEADYYCAAWDDNLSGSGWVFGGGTKLTVL
B14: XGv338 (antibody, V domains shown)
VH: EVQLVESGGGLVQPGGSLRLSCAASGFPFITYWMSWVRQTPGKGLEWVANIKEDGSEKNYVDSVKGRFTVSRDNAENSLYLRMNSLRIEDTAVYYCAREIRRTIPTSGMDVWGQGTTVTVSS
VL: SYELTQPPSVSVSPGQTARITCTGDALPKQYAYWYQQKPGQAPVLIISKDNERASGIPERISGSRSGTTVTLTISGVQAEDEADYYCQSADSSASYSYVFGTGTKVTVL
B15: XGv345 (antibody, V domains shown)
VH: QVQLQESGPGLVKPSQTLSLTCTVSGGSIRSGSYYWSWIRQPAGKGLEWIGRVYTSGSTNYNPSLKTRVTISLETSKNHFSLKLSSVTAADTAVYYCARGEWEEDFALWGRGTLVTVSS
VL: DIQMTQSPSSLSASVGDRVTITCRASQSIASHLNWYQQKPGKAPKLLIYGASTLQSGVPSRFSGSGSGTAFTLTISSVQPEDFATYYCQQSYSAITFGQGTRLEIK
B16: XGv294 (antibody, V domains shown)
VH: QVQLVQSGAEVKKPGASVKVSCKASGYTFTRHYIHWVRQAPGQGLEWMGIINPSGGGASYAQKFQGRVTMTRDTSTSTVYMEVSSLRYEDTAVYYCARAEGGSWLGWFDPWGQGTLVTVSS
VL: QSVLTQPPSASGTPGQRVTISCSGGSSNIGNNYVYWYQQLPGTAPKLLIYGNNQRPSGVPDRFSGSKSGTSASLAISGLRSEDEADYHCAAWDDGLSGSGWVFGGGTKLT

Tests used:
[1] = molecular target: SARS-CoV-2 wild-type spike (S) protein (SARS-CoV-2, WT (MN908947), UniProt P0DTC2)
[2] = molecular target: T1, SARS-CoV-2 wild-type spike receptor-binding domain (SARS-CoV-2, WT (MN908947), UniProt P0DTC2)
[3] = molecular target: T1, SARS-CoV-2 wild-type spike …; assay: BLI; conditions: both partners purified
[4] = molecular target: SARS-CoV-2 wild-type spike N-terminal domain (SARS-CoV-2, WT (MN908947), UniProt P0DTC2); assay: ELISA; conditions: both partners purified

| Binder | binding result [1] | binding result [2] | Kd [3] [nM] | binding result [4] |
| --- | --- | --- | --- | --- |
| B1 | binds | binds | – | – |
| B2 | binds | binds | – | – |
| B3 | binds | binds | – | – |
| B4 | – | – | 0.0814 | no binding |
| B5 | – | – | 0.59 | – |
| B6 | binds | binds | – | – |
| B7 | binds | binds | – | – |
| B8 | binds | binds | – | – |
| B9 | – | – | 0.344 | no binding |
| B10 | binds | binds | – | – |
| B11 | binds | binds | – | – |
| B12 | – | – | 0.515 | no binding |
| B13 | binds | binds | – | – |
| B14 | binds | binds | – | – |
| B15 | binds | binds | – | – |
| B16 | binds | binds | – | – |
